From US7629169B2, “Methods for the production of platelet-derived growth factor-responsive neural precursor cells” (Stem Cell Therapeutics Corp., priority 2004, dated 2009) come the findings set out here.

Assay [1] relates to PDGF-generated neurospheres. The assay can be described thus: Differentiation of primary PDGF-AA-generated neurospheres, immunocytochemistry. In kind it is cell-based, mouse.
In assay [2] the test system is PDGFRα-labeled cells (PRPs). The assay can be described thus: PDGFRα and Tunel staining of dissociated primary cells, 24 hours. In kind it is cell-based. On the procedure:
Dissociated primary cells were cultured in 24-well plates with or without NT-3 for 24 hours, stained for PDGFRα and Tunel, and the number of labeled cells counted.

Assay [3] relates to PDGF-responsive neural precursors (PRPs) from dissociated E14 MGE/LGE. The assay can be described thus: Primary neurosphere generation from dissociated E14 ganglionic eminences. It is filed as cell-based, mouse. Conditions: for neurosphere size / number of neurospheres produced: neurotrophin in the presence of PDGF. As to the method:
Cell culture. The culture medium (MHM) was composed of DMEM/F-12 (1:1) including HEPES buffer (5 mM), glucose (0.6%), sodium bicarbonate (3 mM), glutamine (2 mM), insulin (25 μg/ml), transferrin (100 μg/ml), progesterone (20 nM), putrescine (10 μM), and sodium selenite (30 nM; all from Sigma, St. Louis, Mo., except glutamine from Invitrogen, Carlsbad, Calif.). The lateral, medial, or both ganglionic eminences (LGE, MGE or both) were removed from Embryonic Day 14 (E14) mouse embryos and mechanically dissociated with a fire-polished Pasteur pipette in MHM. Cells were plated at a density of […] unless otherwise indicated.
For neurosphere generation, PDGF-AA (100 ng/ml; Peprotech, Rocky Hill, N.J.), PDGF-BB (100 ng/ml; Peprotech), EGF (20 ng/ml; Peprotech), FGF2 (20 ng/ml; R&D [Minneapolis, Minn.])+heparan sulfate (2 μg/ml; HS; R&D), SHH (2 ug/ml; R&D), cyclopamine (5 μM; Toronto Research Chemicals, North York, Ontario), and/or DMSO (0.1%; carrier) was added to the MHM. MHM used to generate neurospheres also contained 2% B27 (Invitrogen).
[…] is one of the earliest markers of OLPs, and signaling by PDGF-AA is required for the generation of most oligodendrocytes (Fruttiger et al., Development 126:457 (1999)). Increasing concentrations of PDGF-AA were used to determine whether stimulation of dissociated E14 medial and lateral ganglionic eminences. (MGE and LGE, respectively) results in generation of neurospheres. The neurosphere assay was used because manipulation of primary cells is minimal compared to the immunopanning procedures used to isolate O-2A progenitors.
The effect of brain-derived neurotrophic factor (BDNF), neurotrophin-3 (NT-3), and nerve growth factor (NGF) on PRPs was determined. Cells were cultured as previously reported (Chojnacki et al., J Neurosci 24(48):10888 2004) in the presence of various combinations of PDGF, brain-derived neurotrophic factor (BDNF), NT-3, nerve growth factor (NGF), and the effects on neurosphere generation characterized. MHM is the defined medium used in cultures without growth factor.

B1: CNTF: ciliary neurotrophic factor (protein, UniProt P26441 1-200, looked up)
Ciliary neurotrophic factor: MAFTEHSPLTPHRRDLCSRSIWLARKIRSDLTALTESYVKHQGLNKNINLDSADGMPVASTDQWSELTEAERLQENLQAYRTFHVLLARLLEDQQVHFTPTEGDFHQAIHTLLLQVAAFAYQIEELMILLEYKIPRNEADGMPINVGDGGLFEKKLWGLKVLQELSQWTVRSIHDLRFISSHQTGIPARGSHYIANNKKM
Turning to B1, the “GFAP-immunoreactive cells (astrocytes)” value in assay [1] (2 DIV differentiation) is on record as “did not induce GFAP expression”. Besides, in assay [1] (6 DIV PDGF-generated neurospheres differentiated 2 DIV), the “OLIG2 / O4 expression” value was “no effect on OLIG2 or O4 expression”.

B2: NT-3: neurotrophin-3 (protein, UniProt P20783 139-257, looked up)
Neurotrophin-3: YAEHKSHRGEYSVCDSESLWVTDKSSAIDIRGHQVTVLGEIKTGNSPVKQYFYETRCKEARPVKNGCRGIDDKHWNSQCKTSQTYVRALTSENNKLVGWRWIRIDTSCVCALSRKIGRT
B2: the “Tunel and PDGFRα co-labeled cells” value in assay [2] (with or without NT-3, 24 hours) was “no Tunel and PDGFRα co-labeled cells were observed”. Also, in assay [2] (with vs without NT-3, 24 hours), the PDGFRα-labeled cells entry was “more PDGFRα-labeled cells”. Also, in assay [3] (initial 24 hour NT-3 vs exposure after first 24 hours), the “generation of neurospheres by timing of treatment” value is listed as “more effective at promoting the generation of neurospheres than continued exposure to NT-3 after the first 24 hours”. For the same molecule, in assay [3], the neurosphere size entry was “promote the generation of larger neurospheres” and the “number of neurospheres produced” value was “more neurospheres are produced”.

B3: BDNF: brain-derived neurotrophic factor (protein, UniProt P23560 19-247, looked up)
Neurotrophic factor BDNF …: APMKEANIRGQGGLAYPGVRTHGTLESVNGPKAGSRGLTSLADTFEHVIEELLDEDQKVRPNEENNKDADLYTSRVMLSSQVPLEPPLLFLLEEYKNYLDAANMSMRVRRHSDPARRGELSVCDSISEWVTAADKKTAVDMSGGTVTVLEKVPVSKGQLKQYFYETKCNPMGYTKEGCRGIDKRHWNSQCRTTQSYVRALTMDSKKRIGWRFIRIDTSCVCTLTIKRGR
Take B3: in assay [3], the neurosphere size entry is reported as “promote the generation of larger neurospheres” and the “number of neurospheres produced” value was “more neurospheres are produced”.
